Assay results taken from patent US10188742B2, “Bi-specific antibodies and uses thereof” (ACADEMIA SINICA, priority 2014, dated 2019).

Experiments:
[1] = target: BSA (Bos taurus, UniProt P02769); test: ELISA antigen binding of BsAbs, control protein
Method: (§1) The anti-PEG binding specificity of BsAbs was measured by adding graded concentrations of PEG2×TAG72, PEG2×DNS, hCC49 scFv, h6.3Fab×EGFR or h6.3Fab×CD19 in 50 μL 2% skim milk to the mucin, BSA-PEG5000, NH2-PEG3k-NH2 or BSA coated plates at RT for 1 h. The plates were washed with PBS-T (PBS containing 0.05% Tween-20) three times. Rabbit anti-6×His (2 μg/mL) supplemented with HRP-conjugated goat anti-rabbit (2 μg/mL) or HRP-conjugated goat Ig anti human IgG Fab (2 μg/mL) (Jackson ImmunoResearch Laboratories, West Grove, Pa.) in 50 μL dilution buffer were added for 1 h at room temperature. The plates were washed with PBS-T (PBS containing 0.05% Tween-20) three times and with PBS two times. Bound peroxidase activity was measured by adding 150 μL/well ABTS substrate solution (BioLegend, San Diego, Calif.) for 30 min at room temperature. The absorbance (405 nm) of wells was measured in a microplate reader (Molecular Device, Menlo Park, Calif.).
Binding of the BsAbs was detected by ELISA. Microtiter plates were first coated with antigens and then PEG2×TAG72, PEG2×DNS BsAbs or hCC49 (anti-TAG72) single chain antibody was added. After the plates were extensively washed to remove unbound antibodies, the remaining bound antibodies in each well were detected with HRP-conjugated secondary antibody. […] In sum, PEG2×TAG72 anti-PEG (hE11) BsAb of example 1.2 can bind both PEG and tumor antigens. […]

[2] = ELISA PEG binding of h6.3 BsAbs; settings: FIG. 14A
Method: as §1, with “The anti-PEG binding specificity of BsAbs was measured by adding graded concentrations of PEG2×TAG72, PEG2×DNS, hCC49 scFv, h6.3Fab×EGFR or h6.3Fab×CD19 in 50 μL 2% skim milk to the mucin, BSA-PEG5000, NH2-PEG3k-NH2 or BSA coated plates at RT for 1 h.” left out
The PEG-binding kinetics of h6-3Fab×EGFR and h6.3Fab×CD19 BsAbs were verified by Microscale Thermophoresis (MST) (FIGS. 14D and 14E).

[3] = tested on: A431 (EGFR+) tumor cells; test: Confocal live cell imaging of PEG-Qdot655 internalization; type: cell-based, human; settings: 10 μg/mL BsAb, 16 nM PEG-Qdot655
Method: The coverslips (30 mm) in POC chambers were coated with 10 μg/mL poly-L-lysine in PBS for 30 min at room temperature. The coverslips were washed twice with PBS and then 5×10^4 cells/chamber of A431 (EGFR+) tumor cells were seeded on the coverslips. A431 cells were incubated with 10 μg/mL of h6.3Fab×EGFR or h6.3Fab×CD19 BsAbs at 37° C. for 30 min containing 1 μg/mL of Hoechst 33342 and 100 nM of LysoTracker® Red DND-99 (Invitrogen Life Technologies Corporation, NY, USA). The cells were washed with culture medium for 2 times. Cell imaging was recorded with an Axiovert 200M Confocal Microscope (Carl Ziess Inc., Thornwood, N.Y.) after adding 16 nM of PEG-Qdot655 solution (Invitrogen Life Technologies Corporation, NY, USA).
To verify whether BsAb-targeted substance could be internalized by antigen-positive cancer cells, live cell imaging was performed by staining cells with lysosome tracker and BsAbs, followed by the addition and incubation of PEG-Qdot655.

[4] = tested on: Raji (CD19+) cells; test: Cytotoxicity assay of Doxisome with h6.3 BsAbs (3H-thymidine); type: cell-based; settings: compared with Doxisome alone
Method: A431 (EGFR^high) and Raji (CD19^high) cells (5000 cells/well) were seeded in 96-well plates overnight. Fifteen microgram per mL of h6.3Fab×EGFR or h6.3Fab×CD19 BsAbs were added to the cells for 30 min at 37° C. and followed by graded concentrations of free doxorubicin or PEGylated liposomal doxorubicin (Doxisome®, Taiwan Liposome Company Ltd., Taipei, Taiwan) was added to the cells in triplicate at 37° C. for 4 h. The cells were subsequently washed once and incubated for an additional 48 h in fresh culture medium and then pulsed for 16 h with ^3H-thymidine (1 μCi/well). Results are expressed as percent inhibition of ^3H-thymidine incorporation into cellular DNA in comparison to untreated cells.
Next, the ability of whether h6.3Fab×CD19 and h6.3Fab×EGFR BsAbs could increase the cytotoxicity of the drug-loaded nanoparticles (NPs) to antigen-positive cancer cells was investigated. Raji (CD19+) and A431 (EGFR+) cells were incubated with h6.3Fab×CD19 and h6.3Fab×EGFR, followed by the addition of graded concentrations of Doxisome (i.e., PEGylated liposomal doxorubicin).

[5] = tested on: Raji cells (CD19+); test: Flow cytometry: BsAb-directed PEG-liposome Texas Red / PEG-Qdot655 on cells; type: cell-based; settings: PEG-liposome Texas Red and PEG-Qdot655, 10 μg/mL BsAb
Method: PEG2×TAG72 or control PEG2×DNS BsAbs (10 μg/mL) were incubated with A-375 (TAG72−), MCF-7 (TAG72+), Jurkat (TAG72+) or OVCAR-3 (TAG72+) cells at 4° C. for 30 min followed by FITC-labeled goat anti-human immunoglobulin second antibody (2 μg/mL) (Jackson ImmunoResearch Laboratories, West Grove, Pa.) or FITC-labeled 4arm-PEG (2 μg/mL). Tumor-specific targeting of PEGylated compounds was also examined by staining A431 (EGFR^high), and Raji (CD19^high) cell lines with 10 μg/mL of h6.3Fab×EGFR or h6.3Fab×CD19 BsAbs in PBS containing 0.05% BSA (staining buffer) at 4° C. for 30 min. The cells were washed with cold PBS for 3 times. PEG-Qdot655 (8 nM) (Invitrogen, Grand Island, N.Y.) or PEG-liposomal Texas-Red (100 nm size, 50 μM, lipid conc.) (FormuMax Scientific, Palo Alto, Calif.) in staining buffer was added to cells for 30 min at 4° C. Raji cells (CD19+) or SKBR3 cells (HER2+) were incubated with 10 μg/ml h15-2b-knob/BU12-hole, h15-2b-knob/anti-Her2-hole, h6-3-knob/BU12-hole or h6-3-knob/anti-Her2-hole BsAbs, washed and incubated with 0.25 μg/ml FITC-labeled goat anti-human IgG or 10 nM methoxy-PEG Qdot 655 at 4° C. for 30 min. After washing with cold PBS, the surface fluorescence of 10^4 viable cells was measured by FACScaliber flow cytometer (Becton Dickinson, Mountain View, Calif., USA) then analyzed with Flowjo (Tree Star Inc., San Carlos, Calif., USA). […]

[6] = tested on: mucin (TAG-72 tumor antigen); test: ELISA antigen binding of hE11 BsAbs; settings: FIG. 6A
Method: as §1
Binding of the BsAbs was detected by ELISA. Microtiter plates were first coated with antigens and then PEG2×TAG72, PEG2×DNS BsAbs or hCC49 (anti-TAG72) single chain antibody was added. After the plates were extensively washed to remove unbound antibodies, the remaining bound antibodies in each well were detected with HRP-conjugated secondary antibody. […] In sum, PEG2×TAG72 anti-PEG (hE11) BsAb of example 1.2 can bind both PEG and tumor antigens.

[7] = tested on: Jurkat T cells (Tag-72 positive); test: Cancer cell selectivity of hE11 BsAbs (surface immunofluorescence); type: cell-based, human; settings: culture medium, FIG. 10
Method: PEG2×TAG72 or control PEG2×DNS BsAbs (10 μg/mL) were incubated with A-375 (TAG72−), MCF-7 (TAG72+), Jurkat (TAG72+) or OVCAR-3 (TAG72+) cells at 4° C. for 30 min followed by FITC-labeled goat anti-human immunoglobulin second antibody (2 μg/mL) (Jackson ImmunoResearch Laboratories, West Grove, Pa.) or FITC-labeled 4arm-PEG (2 μg/mL). Tumor-specific targeting of PEGylated compounds was also examined by staining A431 (EGFR^high), and Raji (CD19^high) cell lines with 10 μg/mL of h6.3Fab×EGFR or h6.3Fab×CD19 BsAbs in PBS containing 0.05% BSA (staining buffer) at 4° C. for 30 min. The cells were washed with cold PBS for 3 times. […] After washing with cold PBS, the surface fluorescence of 10^4 viable cells was measured by FACScaliber flow cytometer (Becton Dickinson, Mountain View, Calif., USA) then analyzed with Flowjo (Tree Star Inc., San Carlos, Calif., USA). […]
The binding specificity of monovalent BsAbs with their target proteins was measured by collecting the culture medium of BsAbs producing cells, adding the collected medium to cells that expressed the target protein, then determining the binding by ELSA. After washing the cells, the bound BsAbs were detected by FITC-labeled goat anti-human immunoglobulin second antibody. […]

BSA, sequence (P02769 25-607): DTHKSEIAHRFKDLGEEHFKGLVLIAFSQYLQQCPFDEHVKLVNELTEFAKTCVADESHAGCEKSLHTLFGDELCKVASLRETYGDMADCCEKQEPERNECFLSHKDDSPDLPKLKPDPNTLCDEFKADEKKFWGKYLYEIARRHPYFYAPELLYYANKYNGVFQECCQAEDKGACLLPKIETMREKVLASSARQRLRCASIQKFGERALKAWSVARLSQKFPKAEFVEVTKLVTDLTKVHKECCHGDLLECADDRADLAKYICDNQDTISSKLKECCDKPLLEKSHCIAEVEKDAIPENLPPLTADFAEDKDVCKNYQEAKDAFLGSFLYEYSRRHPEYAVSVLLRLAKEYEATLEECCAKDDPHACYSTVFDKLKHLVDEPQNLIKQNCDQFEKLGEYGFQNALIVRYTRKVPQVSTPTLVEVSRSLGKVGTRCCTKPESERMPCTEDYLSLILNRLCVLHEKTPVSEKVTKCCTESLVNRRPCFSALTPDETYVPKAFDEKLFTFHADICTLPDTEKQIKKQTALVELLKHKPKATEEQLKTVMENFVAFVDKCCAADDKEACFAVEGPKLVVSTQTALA

B1: h6.3Fab×CD19: monovalent humanized anti-PEG h6.3 Fab fused to hBU12 anti-CD19 dsFv; SEQ ID NO 9, 10, 4, 11, 6 (protein)
chain 1: DIVMTQSPDSLAVSLGERATINCKSSQSVLYSSNQMNYLAWYQQKPGQPPKLLIYWASTRESGVPDRFSGSGSGTDFTLTISSLQAEDVAVYYCLQYLSSWTFGGGTKLEIKTYSLSSTLTLSKADYEKHKLYACEVTHQGLSSPVTKSFNRGEC
chain 2: QVQLVQSGSELKKPGASVKVSCKASGYTFKNYGMNWVRQAPGQGLEWMGWINTYTGQPIYANDFKGRFVFSLDTSVSTAYLQISSLKAEDTAVYYCARDWGPYWGQGTLVTVSSASTKGPSVFPLAPSSKSTSGGTAALGCLVKDYFPEPVTVSWNSGALTSGVHTFPAVLQSSGLYSLSSVVTVPSSSLGTQTYICNVNHKPSNTKVDKRVEPKSCDK
chain 3: VDLVTVSSASTGGGSGQLGGGGS
chain 4: QVQLQESGPGLVKPSQTLSLTCTVSGGSISTSGMGVGWIRQHPGKCLEWIGHIWWDDDKRYNPALKSRVTISVDTSKNQFSLKLSSVTAADTAVYYCARMELWSYYFDYWGQGTLVTVSSGGGGSGGGGSGGGGSEIVLTQSPATLSLSPGERATLSCSASSSVSYMHWYQQKPGQAPRLLIYDTSKLASGIPARFSGSGSGTDFTLTISSLEPEDVAVYYCFQGSVYPFTFGCGTKLEIKR
chain 5: TRHHHHHH
modifications: Humanized 6.3 VL-Ck; Humanized 6.3 VH-CH1; Peptide Linker; hBU12 dsFv; 6xHis Tag
[1]
  binding to BSA: not to the control BSA protein
[2]
  binding to NH2-PEG10,000-NH2: bound to the NH2-PEG10,000-NH2
[3]
  uptake of PEG-Qdot655 into A431 cells (endocytic vesicles): failed to produce PEG-Qdot655 signals
[4]
  effect on cytotoxicity of Doxisome to Raji cells: enhanced cytotoxicity of Doxisome
[5]
  directing PEGylated substance to Raji cells: capable of directing PEGylated substance to Raji cells

B2: hcc49 scFv: humanized single-chain antibody fragment against TAG-72 antigen (protein)
scFv: QVQLVQSGAEVKKPGASVKVSCKASGYTFTDHAIHWVRQAPGQCLEWMGYFSPGNDDFKYSQKFQGRVTITADKSASTAYMELSSLRSEDTAVYYCARSWIMQYWGQGTLVTVSSGGGGSGGGGSGGGGSDIVMTQSPDSLAVSLGERATINCKSSQSVLYSSNNKNYLAWYQQKPGQPPKLLIYWASTRESGVPDRFSGSGSGTDFTLTISSLQAEDVAVYYCQQYYSYPLTFGCGTKVEIK
[6]
  binding to mucin: bound to mucin

B3: PEG×TAG72: monovalent BsAb: hE11 anti-PEG Fab fused to anti-TAG72 scFv (example 2.1) (protein)
light: DVVMTQSPLSLPVTLGQPASISCRSSKSIVHSNGNTYLEWFQQRPGQSPRRLIYKVSKRMSGVPDRFSGSGSGTDFTLKISRVEAEDVGVYYCSQGSHVPPTFGGGTKVEIKRTVAAPSVFIFPPSDEQLKSGTASVVCLLNNFYPREAKVQWKVDNALQSGNSQESVTEQDSKDSTYSLSSTLTLSKADYEKHKLYACEVTHQGLSSPVTKSFNRGEC
heavy: QVQLVQSGAEVKKPGASVKVSCKASGYTFTTYTMNWVRQAPGQGLEWMGYIIPSSGYVDYNQKFKGRVTMTRDTSTSTVYMELSSLRSEDTAVYYCVRSLDGYFWFAYWGQGTLVTVSSASTKGPSVFPLAPSSKSTSGGTAALGCLVKDYFPEPVTVSWNSGALTSGVHTFPAVLQSSGLYSLSSVVTVPSSSLGTQTYICNVNHKPSNTKVDKRVVDLVTVSSASTGGGSGQLGGGGSQVQLVQSGAEVKKPGASVKVSCKASGYTFTDHAIHWVRQAPGQCLEWMGYFSPGNDDFKYSQKFQGRVTITADKSASTAYMELSSLRSEDTAVYYCARSWIMQYWGQGTLVTVSSGGGGSGGGGSGGGGSDIVMTQSPDSLAVSLGERATINCKSSQSVLYSSNNKNYLAWYQQKPGQPPKLLIYWASTRESGVPDRFSGSGSGTDFTLTISSLQAEDVAVYYCQQYYSYPLTFGCGTKVEIKTRHHHHHH
[7]
  binding of monovalent BsAb to Jurkat T cells: bound to Jurkat T cells
